# In the nanobody polyreactivity screen of Harvey et al. (2022):
# Assay: yeast display, Sf9 membrane polyspecificity reagent, FACS + sequencing; frameworks hold sequencing errors
# Summary of the method: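 In a synthetic yeast display library (Saccharomyces cerevisiae BJ5465), nanobody expression was induced with galactose for 36–48 hours. FACS gates were set low and high (top ~1%) using anti-HA fluorescence for expression and streptavidin fluorescence for binding of the Sf9 membrane reagent. Each polyreactivity label is drawn from the gate of origin.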
row,Sequence,polyreactivity (PSR sort gate)
1,QVQLVESGGGLVQAGGSLRITCAASGSNFTYNAMGRYREAPGKERELVAAIDWDGDTTYYADSVKGRFTISRDNAKNTVYLQMNSLKPEDTAVYYCAAEFYSLGKAIYEYWGQGTQVTLSS,high polyreactivity
2,QVQLVESGGGLVQAGGSLRLSCAASGRIFHGNAMGWYRQAPGKERELVARISSSGGGTYYADSVKGRFTISRDNAKNTVYLQMNSLKPEDTAVYYCAARRPDHTEVSNLRYDSWGQGTQVTVSS,low polyreactivity
3,QVQLVESGGGLVQAGGSLRLSCAASGSTFVSNAMGWYRQAPGKESELVAAISSSGGRTSYADSVKGRFTISRDHANNTVYLQMNSLKPEDTAVYYCNTLVVPYTDFKTSYNVDYWGQGTQVTVSS,low polyreactivity
4,QVQLVESGGGLVQAGGSLRLSCAASGFTFVAYAMGWYRQAPGKERELVAAISRRGGTTYYADSVKGRFTISRDNEKNTVYLQMNSLKPEDTAVYYCNARSNFAFYRGNWAYDYWGQGTQVTVSS,high polyreactivity
5,QVQRVESGGGLVQAGGSLRLRCAASGRTFGYYAMGWYRHAPGKERVLVAAINSRGGSTYYADPVKGRFTISRDNAKNTVYLQMNSLKPEDTAVYYCAKRWCSYGSYSLYDYWGQGTQVTVSS,high polyreactivity
6,QDQLVESGGGLVQAGGSLRLSCAASGNIYPYAMGWYRQAPGKEREFVAAIRYSGGITYYADSVKGRFTISRDNAKNTVYLQMNSLKPEDTAVYYCAAYGWGNRWYSRFDYWGQGTQVTVSS,high polyreactivity
7,QVQLVESGGGLVQAGGSLRLSCAASGSTFYINVMGWYIQAPGKERELVAAIRRRGGSTYYADSVKGRFTISRDNEKNTVYLQMNSLKPEDTAVYYCNAFSITFYDFNSWGQGTQVTVSS,low polyreactivity
8,QDQIVYSGGGLVQAGGSLRLSCAASVRTFYRYDLGWYIQAPGKESELVAAISYSGASTYYADSVKGRFTISRDIAKNTVYLQMNSLKPEDTAVYYCAARYHGRDPRQIRYGYWGQGTQVTVSS,high polyreactivity
9,QVQLVESGGGLVQAGGSLRLSCASSGRNFQKYAMGWYRQAPGKERELVAAISSGDSTYADSVKGRFTISRDNAKNTVYFQMNSLKPEDTAVYYCAVDLYDPWWYSYIGEYEYWGQGTQVTVSS,low polyreactivity
10,QVQLVESGGGLVQAGGSLRLSCAASGSIFVSEYVMGLSRPAPGKERELVARIRWSSGSTYYADSVKGRFTISRDNAKNTVYLQIYSLKPEDTAVYYCNKDYYYVIGWTYHRSYHYDYWGQGTQVTVSS,low polyreactivity
11,QVQLQESGGGLVQAGGSLRLSCAASGSIYDDTYMGWSRQAPGKERELVATIDSGSTTNYADSVKGRITISRDNAKNTVYLQMNSLKPEDTAVYYCAAADSHIDYFDYWGQGTQVTVSS,low polyreactivity
12,QVQLVESGGGLVQAGGRLRLSCAASGSTFPYYAMGWYRQAPGKERELVAVITRGGSTYYADSVKGRFTISRDNAQNTVYLQMNSLKPEDTAVYYCAARYTPGFCYWGQGTQVTVSS,high polyreactivity
13,QVQLVESGGVLVQAGGSLRLSCAASGSIFFYYAMGWYRQAPGKERELVAAITFTGGSTYYADSVKGRFTISRDNAKNTVYLQMKSLKPEDTAVYYCAADWYYGDEYEYWGQGTQVTVSS,high polyreactivity
14,QVQLVESGGGLVQAGGSLRLSCAASGSTFNAYVMGWYRQAPGKERELVAAITRGGSTNYADSVKGRFTISRDNAKNTVYLQMNSLKPEDTAVYDCAARGPWVIPYDYWGQGTQVTVSS,low polyreactivity
15,QVQLVESGGGLVQAGGSLRLSCAASGLTFFGYTMGWYREAPGKEREFVADITWSGGSTYYADSVKGRFTISRDNAKNTVYLQMNSLKPEDTAVYYCSVAPPNWDPFVDDTYLMDYWGQGTQVTVSS,low polyreactivity
16,QVQLVESGGGLVQAGGSLRLSCADSGRIFSSNAIGWYRQAPGQERELVASISSTGSTKYADSVKGRFTISRDNAKNTVYVQMNSLKPEDTAVYYCAAGSYLWHFTFDYWGQGTQVTVSS,low polyreactivity
17,QVQLVESGGGLVQAGGSLRLSCAATGIIFYRNAMGWYRQAPGKERELVASISKRGGSTYYADSVKGRFTISRDNAKNTVYLQMNSLKPEDNAVYYCNTRGGIARQFEIYSWGQGTQVTLSS,high polyreactivity
18,QVQLVESGGGLVLAGGSLRLSCAASGRIFRGYAMGWYRQAPGKERELVAGITWGAGRTYYADSVKGRFTISRDNAKNTVYLQMNSLKPEDTAVYYCAAYYSQDSRRKYDYWGQGTQVSVSS,high polyreactivity
19,QVQLVESGGGLVQAGGSLRLSCAASGFTFNWNDMGWYRQAPGKERELVAAISGGASTYYADSVKGRFTISRDNAKNTVYLQMNSLKPEDTAVYYCAADLDEWGYLFVYWGQGTQVTGSS,low polyreactivity
20,QVQLVESGGGLVQAGGSLRLSCAASGFILRGYDMGWYRQATGKERELVATITTGGSTYYADSVKGRFTISRDNAKNTVYLQMNSLKPEDTAVYYCAGRRRGSVGVGYANPYNYWGQGTQVTVSS,high polyreactivity
21,QVQLVESGGGLVQAGGSLRLSCAASGIIFFYYAMGWYRQAPGKERELVAANSSDGSTYYADSVKGRFTISRDNAKNTVYLQMNSLKPEDTAVYYCAVDHYSARLLARYDYWGQGTQVTVSS,low polyreactivity
22,QVQLVESGGGLVQAGGSLRLSCAASGRTFGTNAMGWYRQAPGKERELVAAISRRGGSTYYADSVKGRFTISRDNAKNTVYLQMNSLKPEDTAVYYCNVVTKFTGRGYDYWGQGTQVTVSS,high polyreactivity

row,Sequence,polyreactivity (PSR sort gate)
1,QVQLVESGGGLVQAGGSLRLSCAASGLTFTYYAMGWYRQAPGKERELVAAISWSGGSTYYADSVKGRFTISRDNAKNTVYLQMNSLKPEDTAVYYCAAATAYYRYRGGYDYWGQGTQVTVSS,high polyreactivity
2,QVQLVESGGCLVQAGGILRLSCAASGYTFFLYAMGWYRQAPGKERELVAAINNGGGSTYYADSVKGRFTISRDNAKNTVYLQMNSLKPEDTAVYYCAVRVARGYRYGYWGQGTQVTVSS,high polyreactivity
3,QVQLVESGGGLVQAGGSLRLSCAASGRTFRYYAMGWYRQAPGKERELVASITSGGRTYYADSVKGRFTISRDNAKNTVYLQMNSLKPEDTAVYYCAASTRYEGNYWGQGTQVTVSS,high polyreactivity
4,QVQLVESGGGLVQAGGSLRLSCAASGSIFYAYAMGWYRQAPGKERELVAAISASGGSTYYADSVKGRFTISRDNAKNTVYLQMNSLKPEDTAVYYCAALTYSTYQTAYRRYPKNKYWGQGTQVTVSS,high polyreactivity
5,QVQLVESGGGLVQAGGSLRLSSAASGSTFKVNARGWYRQAPGKERELVAGITSSDSTKYADSVKGRFTISRDNAKNTVYLQMNSLKPEDTAVYYSAAETKFSRTSEGDYWGQGTQVTVSS,low polyreactivity
6,QVQLQESGGVQAGGSLRLSCAASGYISRSDVMGWYRQAPGKERELVATINNGTITYYADSVKGRFTISRDNATNTVYLQMNSLKPEDTAVHYCAVVQSDTDSLYYWGQGTQVTVSS,low polyreactivity
7,QVQLVESGGGLVQAGCILRLSCAASGRIFNYYTMGWYRQAPGKEMELVAAITRTGGNTYYADSVKGRFTISRDNAKNTVYLKMNSLEPEDTAVYDCNVVWLNQREYYYWGQGTHVTVSS,high polyreactivity
8,QVQLVESGGGVVHAGGSLLLSCAASGRTFFRYVKGWYRQEPGKERELVAAISTRGGSTYYADSVKGRFTISRDNAKNTVYLQMNSLKPEDSAVYYCAADVPTGYDYWGQGTQVTVSS,high polyreactivity
9,QVQLVESGGGLVQAGGSLRLSCAASGLTFYSYAMGWYRQAPGKERELVAAISKRGTNTFYADSAKGRFTISRDNAKNTVYLQMNSLKPEDTAVYYCAVDLSDSDYYWGQGTQVTVSS,low polyreactivity
10,QVQLVESGGGLVQAGGSLRLSCAASGHTFAYNAMGWYRQAPGKEREFVAAITWSTDNTYYADSVKGRFTISRDYAKYTVYLQMNSLKPEDTAVYYCAVDVYFYYRHYGYWGQGTQVTVSS,low polyreactivity
11,QVQLVESGGGLVQAGGSLRLSCAASGSIFAGYAMGWYRQAPGKERELVAAITSRGGNTYYADSVKGRFTISRDNAKNTVYLQMNSLKPEDTAVYYCAADVTRWSWVGTHYYWGQGTQVTVSS,high polyreactivity
12,QVQLVESGGGLVQAGGSLRLSCAASGSTFSHYTMGWYRQAPGKERQLVAAINYGGASTYDADSVKGRFTISRDNAKNTVYLQMNSLKPEDTAVYYCAAAYRPSEQYNYWGQGTQVTVSS,low polyreactivity
13,QVQHVESGGGLVQAGGSLRLSCPASGSIIYYNTMGWYRQAPGKERELVAGISWGGGRTYYADSVKGRFTISRDNAKNTVYLQMNSLKPEDTAVYYCNAVSKYDYGYWGQGTQVTVSS,high polyreactivity
14,QVQLVESGGGLVQAGGSLRLSCAASGRIYAMGWYRQAPGKERELVAAISYSGGSTYYADSVKGRFTISRDNAKNTVYLQMNSLKPEDTAVYYCAAVIYRGYYYWGQGTQVTVSS,high polyreactivity
15,QVQRVETGGGLVQAAGSLRLSCAASGRTFRNYAMGWYRQAPGKERELVAAIRSGVRTYYADSVKGRFTISRDNAKNTVYLQMNSVKPEDTAVYYCAVATGLLYKSHGYCGQGTQVTVSS,low polyreactivity
16,QVQLVESGGGLVQAGGSLRLSCAASGSIFNYYTMGWYRQAPGKERELVARITSGDSTYYADSVKGRFTISRDNAKNTVYLQMNSLKPEDTAVYYCNAGLYRRRSTYYRQAYNYWGQGTQVTVSS,high polyreactivity
17,QVQLVESGGGLVQAGGSLRLSCAASGRILAANAMGWYRQAPGKERELVAAISWSGGRTYYADSVKGRFTISRDNAKNTVYLQMNSLKPEDTAVYYCNKLALAGYDYWGQGTQVTVSS,high polyreactivity
18,QVQLVESGGGLVQAGGSLRLSCAASGSTFDPNVMGWYRQAPGKERELVAGITWRGGRTYYADSVKGRFTISRDNAKNTVYLQMNSLKPEDTAVYYCNAEDWTRKYDYWGQGTQVTVSS,high polyreactivity
19,QVQLVESGGGLVQAGGSLRLSCAASGFIFTRYAMGGYRHAPGKERELVAAISWSGGRTYYADSVKGRFTISRDNANNTVYLQMNSLKPEDTAVYYCAARWVRIRFDYWGQGTQVAVSS,high polyreactivity
20,QVQLVESGGGLVQAGGRLRLSCAASGFTFYDNAMGWYRQAPGKERELVAGINSGDSTFYAVSVKGRITISRDNAKNTVYLQMTSLKPEDTGFYYGAADWAWLQWSYDYWGQGTQVTVSS,low polyreactivity
21,QVQLVESGGGLVQAGGSLRLSCAASGITFVGNAMGWYRQAPGKERELVAGIRGNGGSTYYADSVKGRFTISRDNAKNTVYLQMNSLKPEDTAVYYCAAAAYYADFDYWGQGTQVTVSS,low polyreactivity
